Test results taken from patent US20230133381A1.

Key:
human DR5 (human) [1] = test: TRAIL competitive ELISA: human DR5 coated on the plate (0.1 ug/ml), TRAIL titrated against the binding of control antibody AP, bound AP detected with anti-human Fc-HRP, ABTS, absorbance at 405 nm
human DR5 (human) [2] = test: ELISA: human DR5 coated on the plate (10 ng/ml), antibody titrated, anti-human Fc-HRP, TMB, absorbance at 450 nm
human DR5 (human) [3] = test: SPR (BIAcore X100), human DR5 on CM5 chip, IgG injected, 1:1 Langmuir model

Molecule | IC50 (read off the curve) (human DR5 (human) [1]) [pM] | EC50 (read off the curve) (human DR5 (human) [2]) [µg/mL] | Kd (human DR5 (human) [3]) [pM] | koff (human DR5 (human) [3]) [s⁻¹] | kon (human DR5 (human) [3]) [M⁻¹ s⁻¹]
D0 (antibody, V domains shown) VH: AVTLDESGGGLQTPGGGLSLVCKGSGFTFSSFNMLWVRQAPGKGLEWVAGIGKSDRYTGYGSAVKGRATISRDDGQSTVRLQLNNLRAEDTGTYYCVKDAGSGCGSGGWTGACIDTWGHGTEVIVSS VL: LTQPSSVSANLGGTVEITCSGGDSYAGSYYYGWYQQKAPGSAPVTVIYNNNNRPSNIPSRFSGSTSGSTATLTITGVQAEDEAVYFCGSRDSSYVGIFGAGTTLTVL |  | 0.006 | 15.2 | 2.26e-05 | 1.49e+06
DA26 (antibody, V domains shown) VH: AVTLDESGGGLQTPGGGLSLVCKGSGFTFSSFNMLWVRQAPGKGLEWVAGIGKSDRYTGYGSAVKGRATISRDDGQSTVYLQMNSLRAEDTGTYYCVKDAGSGCGSGGWTGACIDTWGHGTEVIVSS VL: LTQPSSVSANLGGTVEITCSGGDSYAGSYYYGWYQQKAPGSAPVTVIYNNNNRPSNIPSRFSGSTSGSTATLTITGVQAEDEATYYCGSRDSSYVGIFGAGTTLTVL |  | 0.02 | 1.01 | 1.1e-06 | 1.09e+06
DA8 (antibody, V domains shown) VH: EVQLVESGGGLVQPGGSLRLSCAASGFTFSSFNMLWVRQAPGKGLEWVAGIGKSDRYTGYGSAVKGRFTISRDDSKSTVYLQMNSLRAEDTAVYYCVRDAGSGCGSGGWTGACIDTWGQGTLVTVSS VL: DIQMTQSPSSLSASVGDRVTITCSGGDSYAGSYYYGWYQQKPGKAPKTLIYNNNNRPSGVPSRFSGSGSGTDFTLTISSLQPEDFATYYCGSRDSSYVGIFGQGTKVEIK |  | 0.02 | < 6.25 | < 1e-05 | 1.6e+06
DA22 (antibody, V domains shown) VH: EVQLVESGGGLVQPGGSLRLSCAASGFTFSSFNMLWVRQAPGKGLEWVAGIGKSDRYTGYGSAVKGRFTISRDDSKSTVYLQMNSLRAEDTAVYYCVRDAGSPCGSGGWTGACIDTWGQGTLVTVSS VL: DIQMTQSPSSLSASVGDRVTITCSGGDSYAGSYYYGWYQQKPGKAPKTLIYNNNNRPSGVPSRFSGSTSGTDFTLTISSLQPEDFATYYCGSRDSSYVGIFGQGTKVEIK |  | 0.02 | 34.2 | 3.19e-05 | 932000
DA17 (antibody, V domains shown) VH: EVQLVESGGGLVQPGGSLRLSCAASGFTFSSFNMLWVRQAPGKGLEWVAGIGKSDRYTGYGSAVKGRFTISRDDSKSTVYLQMNSLRAEDTAVYYCVRDAGSGCGSGGWTGACIDTWGQGTLVTVSS VL: DIQMTQSPSSLSASVGDRVTITCSGGDSYAGSYYYGWYQQKPGKAPKTLIYNNNNKAKGVPSRFSGSRSGTDFTLTISSLQPEDFATYYCGSRDSSYVGIFGQGTKVEIK |  | 0.03 | 23.5 | 5.97e-05 | 2.54e+06
DA23 (antibody, V domains shown) VH: EVQLVESGGGLVQPGGSLRLSCAASGFTFSSFNMLWVRQAPGKGLEWVAGIGKSDRYTGYGSAVKGRFTISRDDSKSTVYLQMNSLRAEDTAVYYCVRDAGSPCGKGGWTGACIDTWGQGTLVTVSS VL: DIQMTQSPSSLSASVGDRVTITCSGGDSYAGSYYYGWYQQKPGKAPKTLIYNNNNRPSGVPSRFSGSTSGTDFTLTISSLQPEDFATYYCGSRDSSYVGIFGQGTKVEIK |  | 0.01 | 40.3 | 2.8e-05 | 696000
DA9 (antibody, V domains shown) VH: EVQLVESGGGLVQPGGSLRLSCAASGFTFSSFNMLWVRQAPGKGLEWVAGIGKSDRYTGYGSAVKGRFTISRDDSKSTLYLQMNSLRAEDTAVYYCVRDAGSGCGSGGWTGACIDTWGQGTLVTVSS VL: DIQMTQSPSSLSASVGDRVTITCSGGDSYAGSYYYGWYQQKPGKAPKTLIYNNNNRPSGVPSRFSGSRSGTDFTLTISSLQPEDFATYYCGSRDSSYVGIFGQGTKVEIK |  | 0.02 | 0.071 | 4e-07 | 5.6e+06
DA15 (antibody, V domains shown) VH: EVQLVESGGGLVQPGGSLRLSCAASGFTFSSFNMLWVRQAPGKGLEWVAGIGKSDRYTGYGSAVKGRFTISRDTSKNTAYLQMNSLRAEDTAVYYCSRDAGSGCGSGGWTGACIDTWGQGTLVTVSS VL: DIQMTQSPSSLSASVGDRVTITCSGGDSYAGSYYYGWYQQKPGKAPKTLIYNNNNRPSGVPSRFSGSRSGTDFTLTISSLQPEDFATYYCGSRDSDGGGRFGQGTKVEIK |  | 0.01 | 1.09 | 2.78e-06 | 2.56e+06
DA5 (antibody, V domains shown) VH: EVQLVESGGGLVQPGGSLRLSCAASGFTFSSFNMLWVRQAPGKGLEWVAGIGKSDRYTGYGSAVKGRFTISRDDSKSTAYLQMNSLRAEDTAVYYCVRDAGSGCGSGGWTGACIDTWGQGTLVTVSS VL: DIQMTQSPSSLSASVGDRVTITCSGGDSYAGSYYYGWYQQKPGKAPKTLIYNNNNRPSGVPSRFSGSTSGTDFTLTISSLQPEDFATYYCGSRDSSYVGIFGQGTKVEIK |  | 0.03 | < 8.33 | < 1e-05 | 1.2e+06
DA18 (antibody, V domains shown) VH: EVQLVESGGGLVQPGGSLRLSCAASGFTFSSFNMLWVRQAPGKGLEWVAGIGKSDRYTGYGSAVKGRFTISRDDSKSTVYLQMNSLRAEDTAVYYCVRDAGSGCGSGGWTGACIDTWGQGTLVTVSS VL: DIQMTQSPSSLSASVGDRVTITCSGGDSYAGSYYYGWYQQKPGKAPKTLIYNNNNRPSGVPSRFSGSRSGTDFTLTISSLQPEDFATYYCGSRDSDGGGRFGQGTKVEIK |  | 0.03 | 27.7 | 3.67e-05 | 1.33e+06

Second part, the molecule after the results:

IC50 (read off the curve) (human DR5 (human) [1]) [pM] | EC50 (read off the curve) (human DR5 (human) [2]) [µg/mL] | Kd (human DR5 (human) [3]) [pM] | koff (human DR5 (human) [3]) [s⁻¹] | kon (human DR5 (human) [3]) [M⁻¹ s⁻¹] | Molecule
5000 |  |  |  |  | TRAIL protein (from UniProt P50591 114-281) (ligand)
 | 0.01 | 69.8 | 8.47e-05 | 1.21e+06 | DA29 (antibody, V domains shown) VH: AVTLDESGGGLQTPGGGLSLVCKGSGFTFSSFNMLWVRQAPGKGLEWVAGIGKSDRYTGYGSAVKGRATISRDDGQSTARLQLNNLRAEDTGTYYCVKDAGSGCGSGGWTGACIDTWGHGTEVIVSS VL: LTQPSSVSANLGGTVEITCSGGDSYAGSYYYGWYQQKAPGSAPVTVIYNNNNRPSNIPSRFSGSTSGSTATLTITGVQAEDEATYFCGSRDSSYVGIFGAGTTLTVL
 | 0.02 | 3.89 | 4.52e-06 | 1.16e+06 | DA28 (antibody, V domains shown) VH: AVTLDESGGGLQTPGGGLSLVCKGSGFTFSSFNMLWVRQAPGKGLEWVAGIGKSDRYTGYGSAVKGRATISRDDGQSTARLQLNNLRAEDTGTYYCVKDAGSGCGSGGWTGACIDTWGHGTEVIVSS VL: LTQPSSVSANLGGTVEITCSGGDSYAGSYYYGWYQQKAPGSAPVTVIYNNNNRPSNIPSRFSGSTSGSTATLTITGVQAEDEAVYFCGSRDSSYVGIFGAGTTLTVL
 | 0.02 | 78.8 | 9.77e-05 | 1.24e+06 | DA33 (antibody, V domains shown) VH: AVTLDESGGGLQTPGGGLSLVCKGSGFTFSSFNMLWVRQAPGKGLEWVAGIGKSDRYTGYGSAVKGRATISRDDGQSTARLQLNNLRAEDTAVYYCVKDAGSGCGSGGWTGACIDTWGHGTEVIVSS VL: LTQPSSVSANLGGTVEITCSGGDSYAGSYYYGWYQQKAPGSAPVTVIYNNNNRPSNIPSRFSGSTSGSTATLTITGVQAEDEATYFCGSRDSSYVGIFGAGTTLTVL
 | 0.02 | 70.6 | 8.79e-05 | 1.24e+06 | DA31 (antibody, V domains shown) VH: AVTLDESGGGLQTPGGGLSLVCKGSGFTFSSFNMLWVRQAPGKGLEWVAGIGKSDRYTGYGSAVKGRATISRDDGQSTARLQMNSLRAEDTGTYYCVKDAGSGCGSGGWTGACIDTWGHGTEVIVSS VL: LTQPSSVSANLGGTVEITCSGGDSYAGSYYYGWYQQKAPGSAPVTVIYNNNNRPSNIPSRFSGSTSGSTATLTITGVQAEDEATYFCGSRDSSYVGIFGAGTTLTVL
 | 0.02 | 77.4 | 7.97e-05 | 1.03e+06 | DA30 (antibody, V domains shown) VH: AVTLDESGGGLQTPGGGLSLVCKGSGFTFSSFNMLWVRQAPGKGLEWVAGIGKSDRYTGYGSAVKGRATISRDDGQSTAYLQMNSLRAEDTGTYYCVKDAGSGCGSGGWTGACIDTWGHGTEVIVSS VL: LTQPSSVSANLGGTVEITCSGGDSYAGSYYYGWYQQKAPGSAPVTVIYNNNNRPSNIPSRFSGSTSGSTATLTITGVQAEDEATYYCGSRDSSYVGIFGAGTTLTVL
